# Assay results taken from publication PMC6300356, “DNA translocation mechanism of an XPD family helicase”.
# T1: DinG (Escherichia coli, UniProt P27296 1-716)
# T1 sequence: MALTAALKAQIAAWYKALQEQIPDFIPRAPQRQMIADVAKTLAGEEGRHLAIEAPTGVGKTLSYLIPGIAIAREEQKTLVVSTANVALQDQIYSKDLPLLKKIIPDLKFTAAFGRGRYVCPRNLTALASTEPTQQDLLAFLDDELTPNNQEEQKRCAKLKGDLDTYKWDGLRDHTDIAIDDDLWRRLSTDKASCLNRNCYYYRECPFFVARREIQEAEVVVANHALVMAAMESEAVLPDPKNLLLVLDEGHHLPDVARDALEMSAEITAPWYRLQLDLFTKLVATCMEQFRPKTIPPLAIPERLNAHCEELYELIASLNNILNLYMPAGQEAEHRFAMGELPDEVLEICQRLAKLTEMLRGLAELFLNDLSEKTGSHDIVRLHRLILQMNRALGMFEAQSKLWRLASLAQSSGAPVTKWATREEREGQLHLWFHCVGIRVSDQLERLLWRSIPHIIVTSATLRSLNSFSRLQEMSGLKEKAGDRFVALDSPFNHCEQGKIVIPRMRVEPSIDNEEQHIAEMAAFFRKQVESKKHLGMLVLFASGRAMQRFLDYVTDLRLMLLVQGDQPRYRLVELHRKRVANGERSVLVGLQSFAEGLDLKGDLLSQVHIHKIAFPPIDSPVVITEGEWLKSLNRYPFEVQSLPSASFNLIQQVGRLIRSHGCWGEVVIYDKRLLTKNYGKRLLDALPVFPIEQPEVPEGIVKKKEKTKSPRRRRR
# Molecular target: T1, DinG
# Assay: X-ray crystallography (2.5 A); binary complex, no nucleotide; MST: 25 mM Tris pH 8.0, 200 mM NaCl, 1 mM DTT, 5% glycerol, 25 C, 10 nM ssDNA
# Conditions: protein: recombinant; tags: His6-MBP-TEV N-terminal, removed by TEV
binder,measurement,value
TTTTTTTTTTTT (ssDNA) [dT12 (12 base oligo-dT)],binding result,binds
